{
  "source": "patent US20210163599A1",
  "about": "(AVACTA LIFE SCIENCES, published 2021)",
  "key": {"huPD-L1 on H441 cells": {"biological_target": "T1, huPD-L1 on H441 cells (human, UniProt Q9NZQ7 19-290)", "T1 construct": "whole, on cells; also called H441 cells (expressing huPD-L1)", "T1 sequence (Q9NZQ7 19-290)": "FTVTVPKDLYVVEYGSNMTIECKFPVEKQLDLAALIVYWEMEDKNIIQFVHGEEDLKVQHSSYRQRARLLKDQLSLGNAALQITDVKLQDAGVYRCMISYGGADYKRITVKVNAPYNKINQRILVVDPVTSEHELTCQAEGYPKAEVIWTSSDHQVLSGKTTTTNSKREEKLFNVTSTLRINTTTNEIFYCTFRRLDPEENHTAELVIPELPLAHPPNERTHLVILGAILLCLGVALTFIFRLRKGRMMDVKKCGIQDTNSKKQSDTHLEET", "test": "flow cytometry, % of positive H441 cells (human lung adenocarcinoma cells expressing PD-L1)", "experimental": "The binding affinity of AVA04 Affimer polypeptides was determined using Flow cytometry on Human lung adenocarcinoma cell line. […] Cells were collected by centrifugation at 300 rpm for 5 min. The cells were resuspended in PBS and 50000 cells per wells were dispatched in a round bottom 96 well plate. Cells were washed with PBS. Affimer and controls were diluted in staining buffer (R&D) in duplicate and added on cells for staining for approximately 60 min at 4±1° c. Cells were washed and the secondary anti-Cystatin A (R&D) was diluted 1:15 in staining buffer (R&D) and added on cells for staining for approximately 40 min at 4±1° c. Cells were washed and the detection antibody A488 anti-Goat (Biolegend) was diluted 1:100 in staining buffer (R&D) and added on cells for staining for approximately 30 min at 4±1° c. Finally, cells were washed, live and dead cells were stained using L/D stain Zombie Aqua (Biolegend) diluted in staining buffer for 10 min at 4±1° c. Cells were washed and fixation buffer (R&D) was added to each well for 10 min at 4±1° C. then PBS with EDTA (Lonza) was added prior reading the plate on the flow cytometer (Guava 12 HT, Millipore). Dead cells were excluded and the fluorescent Green channel (488 nm/525/30) was acquired. Results were analyzed using Incyte and data were plotted using graphpad."}, "huPD-L1-Fc (R&D Systems) [1]": {"biological_target": "T2, huPD-L1-Fc (R&D Systems) (human, UniProt Q9NZQ7 19-239)", "T2 construct": "Bought from R&D Systems; also called hPDL1-Fc; human PD-L1 Fc antigen", "T2 sequence (Q9NZQ7 19-239 limits assumed)": "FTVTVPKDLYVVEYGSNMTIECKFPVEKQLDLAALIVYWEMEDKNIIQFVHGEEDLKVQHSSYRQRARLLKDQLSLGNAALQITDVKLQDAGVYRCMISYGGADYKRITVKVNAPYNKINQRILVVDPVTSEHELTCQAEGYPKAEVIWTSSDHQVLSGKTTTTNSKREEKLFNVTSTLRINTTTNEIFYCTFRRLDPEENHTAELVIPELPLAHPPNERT", "test": "Biacore (target not named on the sheet; PD-L1 by the example)"}, "huPD-L1-Fc (R&D Systems) [2]": {"biological_target": "T2, huPD-L1-Fc (R&D Systems)", "test": "Biacore"}, "huPD-L1-Fc (R&D Systems) [3]": {"biological_target": "T2, huPD-L1-Fc (R&D Systems)", "test": "Biacore T200, PD-L1-Fc immobilised on CM5, Affimer as analyte, 1:1 Langmuir fit", "experimental": "The concentration titration of Affimer monomer was run as analyte with an association time of 150 seconds, followed by a dissociation time of 300 seconds at a flow rate of 30 μl/min. […] The data blank was subtracted and fit to a 1:1 Langmuir binding model (BIAcore evaluation software; GE) to calculate an apparent KD value."}, "huPD-L1-Fc (R&D Systems) [4]": {"biological_target": "T2, huPD-L1-Fc (R&D Systems)", "test": "competition ELISA: hu PD-1-Fc coated, binder preincubated with 30 ng/ml huPD-L1-Fc; blocked ligand PD-1", "experimental": "Plates were washed 2 times with 150 μl of washing buffer (PBS, Tween 20 0.1%) with a plate washer and saturated with Casein 5% (Sigma) in PBS for 90 minutes at room temperature (25±1° C.) Plates were washed as described previously. […] The reaction was stopped using an acidic solution and plates were read at 450-630 nm. The IC 50 was then calculated using the interpolated non-linear four-parameters standard curve."}},
  "data": [
    {"binder": "AVA04-211 (designed binder, also called AVA04 clone 211) Affimer polypeptide: MIPRGLSEAKPATPEIQEIVDKVKPQLEEKTNETYGKLEAVQYKTQVLAKDWGPSNWWSTNYYIKVRAGDNKYMHLKVFNGPVDDKTLSKDADRVLTGYQVDKNKDDELTGFAAAGHHHHHH", "values": [
      {"measurement": "EC50", "setting": "huPD-L1 on H441 cells", "result": 0.21, "unit": "nM"}
    ]},
    {"binder": "AVA04-269 (designed binder, also called AVA04 clone 269) Affimer polypeptide: MIPRGLSEAKPATPEIQEIVDKVKPQLEEKTNETYGKLEAVQYKTQVLAKEYGPEEWWSTNYYIKVRAGDNKYMHLKVFNGPGDYEQVLIHADRVLTGYQVDKNKDDELTGFAAAGHHHHHH", "values": [
      {"measurement": "EC50", "setting": "huPD-L1 on H441 cells", "result": 0.01, "unit": "nM"}
    ]},
    {"binder": "AVA04-227 (designed binder, also called AVA04 clone 227) Affimer polypeptide: MIPRGLSEAKPATPEIQEIVDKVKPQLEEKTNETYGKLEAVQYKTQVLAKDHGPIAWWSTNYYIKVRAGDNKYMHLKVFNGPEDTNTDGALADRVLTGYQVDKNKDDELTGFAAAGHHHHHH", "values": [
      {"measurement": "EC50", "setting": "huPD-L1 on H441 cells", "result": 0.04, "unit": "nM"}
    ]},
    {"binder": "AVA04-231 (designed binder, also called AVA04 clone 231) Affimer polypeptide: MIPRGLSEAKPATPEIQEIVDKVKPQLEEKTNETYGKLEAVQYKTQVLANTWFPESFWSTNYYIKVRAGDNKYMHLKVFNGPDDNQERQEHADRVLTGYQVDKNKDDELTGFAAAGHHHHHH", "values": [
      {"measurement": "EC50", "setting": "huPD-L1 on H441 cells", "result": 9.51, "unit": "nM"}
    ]},
    {"binder": "AVA04-261 BN (designed binder, Affimer - (G4S)4 - human IgG1 hinge - His; dimerises through the hinge cysteines) MIPRGLSEAKPATPEIQEIVDKVKPQLEEKTNETYGKLEAVQYKTQVLAHAYGPRDWDSTNYYIKVRAGDNKYMHLKVFNGPPADHVLEEAADRVLTGYQVDKNKDDELTGFGGGGSGGGGSGGGGSGGGGSEPKSCDKTHTCPPCPHHHHHH", "values": [
      {"measurement": "koff", "setting": "huPD-L1-Fc (R&D Systems) [1]", "result": 0.000156, "unit": "s⁻¹"},
      {"measurement": "kon", "setting": "huPD-L1-Fc (R&D Systems) [1]", "result": "2.61e+06", "unit": "M⁻¹ s⁻¹"},
      {"measurement": "Kd", "setting": "huPD-L1-Fc (R&D Systems) [2]", "result": 0.0599, "unit": "nM"}
    ]},
    {"binder": "AVA04-141 Monomer His (designed binder, also called Affimer monomer; AVA04 clone 141) Affimer polypeptide: MIPRGLSEAKPATPEIQEIVDKVKPQLEEKTNETYGKLEAVQYKTQVLAAAHFPEHFWSTNYYIKVRAGDNKYMHLKVFNGPQPADMSAEFADRVLTGYQVDKNKDDELTGFAAAGHHHHHH", "values": [
      {"measurement": "Kd", "setting": "huPD-L1-Fc (R&D Systems) [3]", "result": 8.9, "unit": "nM"},
      {"measurement": "koff", "setting": "huPD-L1-Fc (R&D Systems) [3]", "result": 0.0251, "unit": "s⁻¹"},
      {"measurement": "kon", "setting": "huPD-L1-Fc (R&D Systems) [3]", "result": "2.81e+06", "unit": "M⁻¹ s⁻¹"},
      {"measurement": "IC50", "setting": "huPD-L1-Fc (R&D Systems) [4]", "result": 2.5, "unit": "nM"}
    ]},
    {"binder": "AVA04-228 (designed binder, also called AVA04 clone 228) Affimer polypeptide: MIPRGLSEAKPATPEIQEIVDKVKPQLEEKTNETYGKLEAVQYKTQVLAKPYGPRDWDSTNYYIKVRAGDNKYMHLKVFNGPEPQLDTSPIADRVLTGYQVDKNKDDELTGFAAAGHHHHHH", "values": [
      {"measurement": "EC50", "setting": "huPD-L1 on H441 cells", "result": 0.18, "unit": "nM"}
    ]},
    {"binder": "AVA04-261 (designed binder) MIPRGLSEAKPATPEIQEIVDKVKPQLEEKTNETYGKLEAVQYKTQVLAHAYGPRDWDSTNYYIKVRAGDNKYMHLKVFNGPPADHVLEEAADRVLTGYQVDKNKDDELTGFAAAGHHHHHH", "values": [
      {"measurement": "EC50", "setting": "huPD-L1 on H441 cells", "result": 0.043, "unit": "nM"}
    ]},
    {"binder": "AVA04-251 (designed binder) MIPRGLSEAKPATPEIQEIVDKVKPQLEEKTNETYGKLEAVQYKTQVLAREGRQDWVLSTNYYIKVRAGDNKYMHLKVFNGPWVPFPHQQLADRVLTGYQVDKNKDDELTGFAAAGHHHHHH", "values": [
      {"measurement": "EC50", "setting": "huPD-L1 on H441 cells", "result": 2.06, "unit": "nM"}
    ]}
  ]
}
